Measured values reported in PMC11570498.

How the values were obtained:
[1] = molecular target: Chlamydomonas reinhardtii Rubisco (CrRubisco) (Chlamydomonas reinhardtii (endogenous in Chlamydomonas cells)) (UniProt P00877); assay: SPR; Rubisco immobilised as bait, fragments as analyte (prey); Biacore T100/T200, 25 °C; analyte injected at 15 μl/min for 30 s, 360 s dissociation; fit of y = Bmax·x/(KD + x); apparent KD; triplicate
[2] = molecular target: Chlorella sorokiniana Rubisco holoenzyme (CsRubisco) (Chlorella sorokiniana UTEX1230 (endogenous in Chlorella cells)) (UniProt W8SUA8); assay: as above
[3] = molecular target: Chlorella sorokiniana Rubisco holoenzyme (CsRubisco) (Chlorella sorokiniana UTEX1230 (endogenous in Chlorella cells)) (UniProt W8SUA8); assay: cryo-EM structure; 0.5 μM CsRubisco and 16 μM α3–α4 in 200 mM sorbitol, 50 mM HEPES, 50 mM KOAc, 2 mM Mg(OAc)2, 1 mM CaCl2, pH 6.8; D4 map of the holoenzyme and C1 map after symmetry expansion
[4] = molecular target: Chlorella sorokiniana Rubisco holoenzyme (CsRubisco) (Chlorella sorokiniana UTEX1230 (endogenous in Chlorella cells)) (UniProt W8SUA8); assay: native gel or EMSA; native PAGE gel-shift assay; Rubisco and fragments mixed for 30 min at room temperature; 50 mM Tris-HCl pH 8.0, 50 mM NaCl (Fig. 3a); 4-20% gels, 4 h at 100 V, 4 °C

Sequence of Chlamydomonas reinhardtii Rubisco (CrRubisco) (Chlamydomonas reinhardtii (endogenous in Chlamydomonas cells)) (P08475 46-185 limits assumed, chain 2 of 2, other chains not shown): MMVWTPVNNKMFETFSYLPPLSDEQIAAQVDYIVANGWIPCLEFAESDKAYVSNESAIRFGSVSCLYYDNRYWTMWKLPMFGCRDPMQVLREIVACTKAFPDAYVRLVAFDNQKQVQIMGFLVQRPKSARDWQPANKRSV

Kd [1]	Kd [2]	percent of the CsRbcL sites occupied [3]	K0.5 (half-occupancy) [4]	Substance
108 µM	103 µM	–	–	CsLinker α3 fragment (residues 142–207) (domain or fragment)
1.3 µM	1.21 µM	23%	1.2 µM	CsLinker α3–α4 fragment (residues 142–272) (domain or fragment)
